From the DeepSol protein solubility set

Test: soluble on expression in E. coli; label from the status in PepcDB or PDB records
In the case of “MTIKSDKWIRRMAQEHGMIEPFVERQVRGADDSRVISYGVSSYGYDVRCAAEFKVFTNIHSAVVDPKNFDEKSFVDINSDVCIIPPNSFALARTVEYFRIPRDVLTICLGKSTYARCGIIVNVTPLEPEWEGHVTLEFSNTTNLPAKIYANEGVAQMLFLQSDEACEVSYKDRGGKYQGQR”, the “soluble on expression in E. coli” value is reported as “soluble”.
For “MEKLRVGIVFGGKSAEHEVSLQSAKNIVDAIDKSRFDVVLLGIDKQGQWHVSDASNYLLNADDPAHIALRPSATSLAQVPGKHEHQLIDAQNGQPLPTVDVIFPIVHGTLGEDGSLQGMLRVANLPFVGSDVLASAACMDKDVTKRLLRDAGLNIAPFITLTRANRHNISFAEVESKLGLPLFVKPANQGSSVGVSKVTSEEQYAIAVDLAFEFDHKVIVEQGIKGREIECAVLGNDNPQASTCGEIVLTSDFYAYDTKYIDEDGAKVVVPAAIAPEINDKIRAIAVQAYQTLGCAGMARVDVFLTPENEVVINEINTLPGFTNISMYPKLWQASGLGYTDLITRLIELALERHAADNALKTTM”, the “soluble on expression in E. coli” value was “soluble”.
With “MNSLIPPPTSEQQMNMFRLRDKMSLLNAEFLKVINGYFTEKNHYDFSGTMKSYMDHVAQLKQIYKVDDDVAADMTVPRRTENSSESSGETVAPRKIAKAVRKNGTPKNPLNSTVFAASSPAATVASVPKFGDISVITKETPAPLAKTAEPLVAPAAPATARKRAIRGGGPLGGAESVVFKSGEDGQAATSSVKIPATTIKFPEPTKDFWTKKSDAPAAPSNSGSLFAFLGKELFSIKKNPPIYQNFSGDKPKETPKFSGFSFGKKPAEPSEEPKAADSTPKLTFGSPKEADLPKPASSLFGASPSKPLVFGGSSADSTTSAPKPFSALSTAASLFGSSSASTTTTATQPLSFGSSSTGGSSLFSGFAGLAQKAMENQNQAKPEGSGEDDEGEYVPPKVETVENQEPDAVLSSKVSVFKFTGKEYTKLGVGMLHIKDNDGKFSVLIRAATATGTVWLNSLCNKAMKATVVDAKGDRIRLTCPSSSTEMATMMIRFGTADGAKKFTDKILEVAV” the “soluble on expression in E. coli” value was “not soluble”.
In the case of “MAHHHHHHMILDLFDLCATPYAKRRSHLHSFMSELEDRLFRAEMALTQRRRSAVSPKEKRALGAVRPINVVVQEVLRETPILCFDEFQTFDVAHAALLAAFFSEAFREGLFFITTSNRPPEDLCRVSASFNAFLPVLRQHCHVVHCADIRDYRVKEAVERHHQLIFLHPNTKTNVERCCGVSSMLSGLVAESLHGSRRTHCGTTAAAS”, the “soluble on expression in E. coli” value is reported as “soluble”.
In the case of “MGSDKIHHHHHHMENILDKLGIELNEQTRLTNDSKFTFNCHSGLSCFNTCCSNLDIVLTPYDILRMKNRLGLTSVEFISEYTEPVIQKESKLPFLKLKLGDEGKCRFVAAEGCTVYGDRPAACRYYPLGFGIYKNEEAGDDFYFLIREDHCKGFEEEREWTVGEWRKNQGVDEYDDKNRVWMEVILNKKLYSPELEPDEKSLKMFFMASYDLDAFRDFVFESRFLDVFDIEEERLEMIKNDEAELMLFAHQWLLFALFKKPTMNLKQV”, the “soluble on expression in E. coli” value is reported as “not soluble”.
In the case of “ANCAVCDSPGDLLDQFFCTTCGQHYHGMCLDIAVTPLKRAGWQCPECKVCQNCKQSGEDSKMLVCDTCDKGYHTFCLQPVMKSVPTNGWKCKNCRICI”, the “soluble on expression in E. coli” value is reported as “soluble”.
In the case of “MLSLPPPEFYKLWIINKSPYQLFNIYRSGIMKVKVLDASAIIHGYNPIIEEGEHYTTPEVLEEIESKKIIVEQALDFGKLKIMSPNREYIKKVEEVVKKTGDNLSQQDIGVLALALNLNAILYTDDYGIQNVAKKLNIEVRGIAFEPTNKDFIWRKICEGCKKLYPVDYEEDICEICGSPLKRKMVKSRLKKKRKKKLEHHHHHH”, the “soluble on expression in E. coli” value is reported as “soluble”.
For “MSLRPVPSGQDPIKVVHYSDIHVDQLYTEGSNAKCNKPICCRQVKIIRHTHKSWTDFSRPFTENDEPGKTDSPAGPFGEHTCDSPVSLEHSMYQAIKEIVPDASFTIFTGDVVDHSIWNTTWDYNKHQIIESYENMDKHLGIVYGTAGNHESHPTNAYQPSSIGGASSWIYDLLAGAWSRWIGHEAASKAAQIGAYSTKFPHGNLRVISLNTNLYYRGNFWLFQRKMIRDPSKQFDWLIEELHAAEKAGERVYIIGHMPPGDRNAFHDQSNYLNQIVNRYSSTIAAMFFGHTHRDHFQITYSEAPKKSFSNALLTSYVGPSLTPTSGMPSFRVYDVDPITFAVLDATTYSADMNSPTYQTQGPVWKKYYSAKETYGEGHHHHHH”, the “soluble on expression in E. coli” value was “not soluble”.
For “MSYQPPPNGQMPGYPQQQFNQQPQFQSNGFPPPAAPQKPAQVPGGFPPPHQQPNGQYQNGGLNGNSSHLAQSVNNMSIGARSTPSAQPPNPYQPAGYPGAPPQQLQQVQRQQTPQQFAAVPQSVQAPSATPAGPLQAMQQAPAPTPGIPQMNQGAHLPPQPHQIHQPTPLRPQIPGFPQAGGSPSSFQAGAPTSQNVQGYPGGPSSAPSAYPGAPQVPQAPNSFIPPGTGGFPPGQPTAGSFPPGPQVPGSYPSGPADIPQGPGMPRAFPPGASAPVAPGMPGAFPPGQGGPGMPGSFPPGAPGPGGPGMPGSFAPGAPGPGGPGGYPSGGPGMPGMQGGYPGGPPQQRQQRLDPNMMPSAVQVIDDDSSTRSGIFPTGYPNAELPPLVSTNSFAQDQGNCNPKFMRSTLYTAPQTNDILKASQIPLAVVISPFASLTEYEKEPPVVDLGPQGPIRCQRCKAYICPFMEFQDGGRSFRCPFCHARTSVEDAYFAHLDHTGRRTDIEMRPELCLGAYDLVATKQYCKNGIAPKEPAFIFMIDVSYNAISNGMLPILCQNLEKVLRNLPRESGQLESSMRIGLATFDQAVHFFDISSASPKMLVMSDVQEPFVPMVDGLLLPYNEALPGLRAALAEIPKLFSQSKTTETILQPVVQAGLDALKCADRAGKVILFSTVLPTYDAPGKLKSKNDRSLLGTDKEKNALVPQEDSYTKLGEQCVKSGVTVDLFLFPNAFIDVATIGQLSAVTGGSIFKFQYFSADKDGVRMLNELERHVSKKIAFDCMARVRTSTGIRPITFTGSFYMENSTDLELATLDESKAFITEIKHDDSLKDPASFIQTAVLYTSMTGQRRLRILNLCLPVTADYNQVYRLADPEALTAFMLKQAVQLNRDKGSSEMRESLSSRCAQFLATYREKCSEGAPLGQLILPESLKLMPLYVNSILKNDAISGGSEMTVDDKVWQMELIRGLRTENVMPLIYPRVMPISDLQINDTEEMKDLPKPVRASSEFLENSKAYIIDNGVILFVWVGSACPQTWVQDVFGVGATNQIDTESGTIPEKDNGHSRALRRAIQLLPRGIRERKTFVVVEKSGLEPWMKKFLVEDKAGPANMSYVDYLVDIHRKIRDLIS”, the “soluble on expression in E. coli” value was “not soluble”.
With “MTLTQIHALLAVLEYGGFTEASKRLYMTQSAVSQAISALEEELGVDILIRERRKEIELTAAGSRIVRHLRAIQRDVNAVKEIAEQEKKNPARTLRIGCFPSACACILPGVIRYFESHHPNVKIIPYEENSTAIIDSLQDGSIDAGFVPFPVNGMYCVPIYRDKFTVVVPENHPLAANSTVTVEELMDEPLIVSKGRYELSIMALFKEKGIEPIFKYEFNHPDTALNFIRQGLGIALLPELTLKATTGKLCSVALEPTFYRQISLLAKEPPVEGSPLFLLQKCMETLTDEGLL” the “soluble on expression in E. coli” value was “not soluble”.
For “MSMATVDPWMQNLPQITNQDFFHSSGIECWNRQFPDHRVVEENGPIKTKDALMILYFITVRNIRKNRNTITRIRDALKSPVSIFRRSPKLSLQEDVLSWQKSPESLAASEYGSKLFVQFLKQQTSADDVDFWLACAKHRWTEMTRDGYEYAAYMIYNTYVFWTCERKIDLLDKFCFVDDDGGTPRDVFITAQAYVGTKFPKDSHKKFLQDPIYLNFLHSVSSAANQQKK”, the “soluble on expression in E. coli” value was “not soluble”.
In the case of “MGSDKIHHHHHHMITRLHEPYLALLQQAMLAATPSGSRVALDLGCGDGSKTRWLRACSASDALIVGVDRDGSVLRAADDMMFIAGDASHLPLRDACIDLVWCIAALNLFPHRHLALREMWRVLRHGGTLVVASAGEYWVRLRNHPAPLIAALPDTPLPLPPADGLDEEWLLLMAAAGFQPRQTQAYLLDGGRLAQVALINSEALTSYLSLPPCASPVADPEPRHLLIVTSARKG”, the “soluble on expression in E. coli” value is reported as “not soluble”.
For “MRISSLLFLTFLAGIVQAQDFLAMFKPFLGGGGGGGNPFANPQAIGGLFQQFAGGNGGGFGQLLAGAMAPKPAPAAAGPRSAPAPTNEDYNTDIDVPAPKAKARAAPTPRRAQGDDDDNIDMSLTRLG”, the “soluble on expression in E. coli” value was “not soluble”.
For “MNDSSVIYRAIVTSKFRTEKMLNFYNSIGSGPDKNTIFITFGRSEPWSSNENEVGFAPPYPTDSVLGVTDMWTHMMGTVKVLPSMLDAVIPRRDWGDTRYPDPYTFRINDIVVCNSAPYNATESGAGWLVYRCLDVPDTGMCSIASLTDKDECLKLGGKWTPSARSMTPPEGRGDAEGTIEPGDGYVWEYLFEIPPDVSINRCTNEYIVVPWPEELKEDPTRWGYEDNLTWQQDDFGLIYRVKANTIRFKAYLDSVYFPEAALPGNKGFRQISIITNPLEAKAHPNDPNVKAEKDYYDPEDLMRHSGEMIYMENRPPIIMAMDQTEEINILFTF”, the “soluble on expression in E. coli” value was “soluble”.
With “MRRRQRRQSSNIFHMLTKNQIVELREAFNFMDVNSDTFVDRGDLENFLASIGSPFSESEIDEMMAEGGDSMTYMLFLTMIGERLSCTDSEKSIFNALKEFDDNGDGTIDEKVLREWLTEKGDRMADEDVNLLLRDCVENGRIDCRSLTTKMKYGEIINE” the “soluble on expression in E. coli” value was “not soluble”.
With “MGSDKIHHHHHHMAVSAKYDEFNHWWATEGDWVEEPNYRRNGMSGVQCVERNGKKLYVKRMTHHLFHSVRYPFGRPTIVREVAVIKELERAGVIVPKIVFGEAVKIEGEWRALLVTEDMAGFISIADWYAQHAVSPYSDEVRQAMLKAVALAFKKMHSINRQHGCCYVRHIYVKTEGNAEAGFLDLEKSRRRLRRDKAINHDFRQLEKYLEPIPKADWEQVKAYYYAM” the “soluble on expression in E. coli” value was “not soluble”.
For “MGSDKIHHHHHHMNVTTSTLADGREIIYFDDHELREGERVLHDSRDLPHTQPLSEIRHDPLTNTWVAYAAHRMNRTFMPPANENPLAPTTPGNLPTEIPSPTYDVVVFENRFPSFSMNIAVGEDWESYVDGIDLYPRRPALARCEVVCFTPDVDKSFKDLPVSRIRTVINAWAHRTEALSALSGVQQVFPFENRGEEIGVTLQHPHGQIYSYPFLSPRLQAIVQSAQYYAETHDGHDLFDAIIREESAVQTRVIERTEHFIVFVPAAAKWPVEAMVMPLRAVADFTELTDVERDDLAALLKRLYTAVDSFFEGVTKTPYIAGWTQAPVDPALRPFGRLHLQLFSLMRSPNRMKFLAGSESSQGVWINDTTPERIAQRFKEVWPHATLD”, the “soluble on expression in E. coli” value was “not soluble”.
In the case of “MSGGEAQGKRKQWQRWLSPRYVWRRLRHNIGPKLVSLGAALVLWSVSTGDQRAQVQQSYDVPITVRDTTGASGSDERRAVSDLNPETVRVTLTGRPERLNELRPSNIEALLDVTGVPEGSFNRPVQIVAPSNTVLSKQVPERVQGFVDSELSRTLTVTLGVASPAENSLPRFEVRPSEVQATAPSRVLNQVTRVVTSPVDLDPGEEREAPLIALDSRGRVVEPVTLHPASVSVQRLDTGTLPVKTLPVVLGAPPASLRVQSQTLQPRTVRVVAAPELLGRLREVSGQVDYRVGSSTLPVTLRLPDGAQALETVSVSLVVERIKAPDPGAGAPTQQKSGASSSSGGNLEHHHHHH”, the “soluble on expression in E. coli” value is reported as “soluble”.
For “SLQSNILAFTPPAPSASMNVNRTAVVSVTTKDSRAIQEIASYTKHGELIKLNASPSVTQLFQQVMQQNLISKGFRVGQLNGSNAWVTVDVREFGTQVEQGNLRYKLNTKIQATVYVQGAKGSYNKSFNVTHSQEGVFNAGNDEIHKVLSQTFNDIVNNIYQDQEVAAAINQYSN”, the “soluble on expression in E. coli” value was “soluble”.
In the case of “MAHHHHHHMLRQSLLSLAKVYGAVPPLGAAQGHRLLHGKREREGSLFAVANDVKRDERLLRQQLNALLEEERMPMQARLQRSEAVSSHEAVPQTPLVDLPGVERRRDLPADPITRLFFQHKGDHALYYGTYDKPSVQDDDRVQIEKRVPRRREENLYTPIYDFCHRIREATEQRKRFVVVPSTIETRGCARVMHDHGLVAGFRDFHNDRAFAVELKYFQGDSTINVIEPCSYDGRTEFEWSPKMMRRLLNTHGIHNRLVVYICRTADNRIIDHIHAVKENIGGRGLMMVH”, the “soluble on expression in E. coli” value is reported as “not soluble”.
